Source: US20190282616A1, “MACROPHAGES REDIRECT PHAGOCYTOSIS BY NON-PROFESSIONAL PHAGOCYTES AND INFLUENCE INFLAMMATION” (University of Virginia Patent Foundation, priority 2016, published 2019)

What was measured:
[1] = system: IGF-1R, Akt and Erk1/2 phosphorylation in LR73 cells; experiment: Immunoblotting of signaling in LR73 cells; type: cell-based, hamster; conditions: serum-starved LR73 cells, 100 ng/mL growth factor
Description: LR73, J774, or BEAS-2B cells were seeded in a 60 mm dish at a concentration of 5×10^5. […] Cells were lysed in RIPA buffer and used in Western blots. The blots were probed for phospho-Erk1/2 (Cell Signaling Technology, #4370), phospho-Akt (Cell Signaling Technology, #4060), phospho-IGF-1R (Cell Signaling, #3024), total Erk2 (Santa Cruz Biotechnology, #sc-154-G), total Akt (Cell Signaling Technology, #4691), total IGF-1R (Cell Signaling, #9750), and anti-B-actin-HRP (Sigma-Aldrich, #A3854) followed by chemiluminescence detection.

[2] = system: LR73 cells; experiment: In vitro engulfment assay: apoptotic thymocyte uptake by LR73 cells; type: cell-based, hamster; conditions: soluble mediator alone; IGF-I at concentrations reported in serum (100-600 ng/mL); other factors over a range of concentrations
Description: LR73, SVEC-40, BEAS-2B, and 16HBE14o-cells were seeded in a 24 well plate. Thymocytes were isolated from 4-6 week old mice and induced to undergo apoptosis with dexamethasone. Thymocytes or prepared microvesicles were then stained with either CypHer5E (GE Healthcare, PA15401) or TAMRA (Invitrogen, C-1171). LR73 and SVEC-40 cells were incubated with apoptotic thymocytes at a 1:10 phagocyte to target ratio, BEAS-2B at a 1:5 phagocyte to target ratio, and 16HBE14o—at a 1:20 phagocyte to target ratio for 2 hours. Mouse IGF-I (Sigma-Aldrich), human IGF-I (Sigma-Aldrich), human IGF-II (Sigma-Aldrich) were added to the phagocytes at the same time as addition of apoptotic targets. For IGFBP3 studies, IGFBP3 (Sigma-Aldrich) was added to media or supernatant from J774 cells for one hour to allow IGFBP3 to bind to any available IGF-I, then the mix is added to phagocytes along with apoptotic targets. […] Targets were then washed off three times with PBS, and the cells were dissociated from the plate with trypsin and the engulfment assessed by flow cytometry.

[3] = system: IGF-1 in BAL fluid; experiment: In vivo cytokine administration: IGF-1 in BAL fluid; conditions: 1 μg recombinant mouse cytokine intranasally for two consecutive days
Description: Mice were administered intranasally with 1 μg of recombinant mouse IL-4, IL-5, or IL-13 (eBiosciences), 1×10^6 apoptotic Jurkat cells, or PBS as control, for two consecutive days. On the third day, BAL fluid was recovered and centrifuged; the supernatant was stored at −80° C. for subsequent cytokine analysis. IL-4, IL-5, IL-6, and CCL-11/Eotaxin-1 in the BAL fluid of mice that were sensitized with HDM (regimen #1) were quantified by a multiplex Luminex performed by the University of Virginia Flow Cytometry Core Facility. Secretion of IGF-1 from J774 cells, peritoneal macrophages, and BAL fluids, as well as TSLP from BAL fluids, were measured by ELISA (R&D Systems).

Molecule	early downstream signaling events (Erk1/2 phosphorylation) [1]	apoptotic cell uptake (engulfment) by LR73 cells [2]	IGF-1 in bronchoalveolar lavage (BAL) fluid [3]
PDGF-BB: growth factor of the tested panel of soluble mediators (protein, UniProt P01127 82-190, looked up, homodimer, growth factor of the tested panel of soluble mediators) Platelet-derived growth …: SLGSLTIAEPAMIAECKTRTEVFEISRRLIDRTNANFLVWPPCVEVQRCSGCCNNRNVQCRPTQVQLRPVQVRKIEIVRKKPIFKKATVTLEDHLACKCETVAAARPVT	elicited early downstream signaling events	did not alter engulfment	
IL-13: cytokine; recombinant mouse IL-13 (eBiosciences) (protein, UniProt P20109 19-131, looked up) Interleukin-13: APGPVPRSVSLPLTLKELIEELSNITQDQTPLCNGSMVWSVDLAAGGFCVALDSLTNISNCNAIYRTQRILHGLCNRKAPTTVSSLPDTKIEVAHFITKLLSYTKQLFRHGPF			induced IGF-1 production
IL-5: cytokine; recombinant mouse IL-5 (eBiosciences) (protein, UniProt P04401 21-133, looked up) Interleukin-5: MEIPMSTVVKETLTQLSAHRALLTSNETMRLPVPTHKNHQLCIGEIFQGLDILKNQTVRGGTVEMLFQNLSLIKKYIDRQKEKCGEERRRTRQFLDYLQEFLGVMSTEWAMEG			but not IL-5, induced IGF-1 production
